Assays:
[1] = biological target: neddylated CUL1-RBX1 with the FBXW7-SKP1 substrate receptor (human) (UniProt Q13616)
[2] = biological target: neddylated CUL2-RBX1 in complex with the KLHDC2-ELONGIN B/C substrate receptor (human) (UniProt Q13617)
[3] = biological target: neddylated CUL2-RBX1 in complex with the VHL-ELONGIN B/C substrate receptor (human) (UniProt Q13617)

Sequence of ARIH1 (Q9Y4X5 whole entry): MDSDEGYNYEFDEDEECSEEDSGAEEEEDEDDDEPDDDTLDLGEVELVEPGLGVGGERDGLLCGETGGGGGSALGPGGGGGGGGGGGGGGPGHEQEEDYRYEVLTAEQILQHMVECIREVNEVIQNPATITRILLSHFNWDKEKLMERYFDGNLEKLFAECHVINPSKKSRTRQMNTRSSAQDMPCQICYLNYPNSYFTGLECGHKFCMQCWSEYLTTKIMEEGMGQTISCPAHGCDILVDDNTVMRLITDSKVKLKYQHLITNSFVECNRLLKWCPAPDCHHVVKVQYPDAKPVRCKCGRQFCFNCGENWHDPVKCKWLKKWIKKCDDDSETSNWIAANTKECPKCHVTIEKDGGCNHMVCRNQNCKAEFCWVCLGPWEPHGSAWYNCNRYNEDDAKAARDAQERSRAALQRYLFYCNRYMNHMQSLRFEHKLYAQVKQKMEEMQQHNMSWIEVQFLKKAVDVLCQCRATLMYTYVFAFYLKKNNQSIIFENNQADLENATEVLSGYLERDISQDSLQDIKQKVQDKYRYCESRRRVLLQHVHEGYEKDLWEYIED

Row | Km of ARIH1 for the CRL-substrate complex (single-encounter ubiquitylation, ARIH1 titrated, 10 s, Michaelis-Menten fit); peptide on the CRL: KR Lys 387 cycE [1] | Km of ARIH1 for the CRL-substrate complex (single-encounter ubiquitylation, ARIH1 titrated, 10 s, Michaelis-Menten fit); peptide on the CRL: KR Ser 387 cycE [1] | Km of ARIH1 for the CRL-substrate complex (single-encounter ubiquitylation, ARIH1 titrated, 10 s, Michaelis-Menten fit); peptide on the CRL: Lys only cycE [1] | Km of ARIH1 for the CRL-substrate complex (single-encounter ubiquitylation without cold competitor peptide, ARIH1 titrated, 10 s, Michaelis-Menten fit); peptide on the CRL: Arg47 Arg48 SelK [2] | Km of ARIH1 for the CRL-substrate complex (single-encounter ubiquitylation without cold competitor peptide, ARIH1 titrated, 10 s, Michaelis-Menten fit); peptide on the CRL: Lys47 Arg48 SelK [2] | Km of ARIH1 for the CRL-substrate complex (single-encounter ubiquitylation, ARIH1 titrated, 10 s, Michaelis-Menten fit); peptide on the CRL: NSer Hif1α [3] | Km of ARIH1 for the CRL-substrate complex (single-encounter ubiquitylation, ARIH1 titrated, 10 s, Michaelis-Menten fit); peptide on the CRL: WT Hif1α [3] | Substance
1 | 1.12 µM | 1.19 µM | 0.544 µM | – | – | – | – | A397D/K398I/A399V ARIH1 (from UniProt Q9Y4X5 1-557) (enzyme)
2 | – | – | – | 0.391 µM | 0.268 µM | 0.66 µM | 0.403 µM | ARIH1 (from UniProt Q9Y4X5 1-557) (enzyme)
3 | 1.56 µM | 0.461 µM | 1.22 µM | – | – | – | – | K342A/E343A ARIH1 (from UniProt Q9Y4X5 1-557) (enzyme)
4 | 0.874 µM | 1.04 µM | 0.98 µM | – | – | – | – | N358A ARIH1 (from UniProt Q9Y4X5 1-557) (enzyme)
